Experimental data reported in US11028180.

What was measured:
[1] = target: human Jagged1 ECD-His (Met1-Ser1046) (human, UniProt P78504); experiment: BLI
[2] = target: T1, human Jagged1 on 293/293T cells (human, UniProt P78504); experiment: FACS
[3] = target: rat Jagged1 on 293T cells (rat, UniProt Q63722); experiment: FACS
[4] = target: T2, murine Jagged1 on 293T cells (mouse, UniProt Q9QXX0); experiment: FACS
T2 chain: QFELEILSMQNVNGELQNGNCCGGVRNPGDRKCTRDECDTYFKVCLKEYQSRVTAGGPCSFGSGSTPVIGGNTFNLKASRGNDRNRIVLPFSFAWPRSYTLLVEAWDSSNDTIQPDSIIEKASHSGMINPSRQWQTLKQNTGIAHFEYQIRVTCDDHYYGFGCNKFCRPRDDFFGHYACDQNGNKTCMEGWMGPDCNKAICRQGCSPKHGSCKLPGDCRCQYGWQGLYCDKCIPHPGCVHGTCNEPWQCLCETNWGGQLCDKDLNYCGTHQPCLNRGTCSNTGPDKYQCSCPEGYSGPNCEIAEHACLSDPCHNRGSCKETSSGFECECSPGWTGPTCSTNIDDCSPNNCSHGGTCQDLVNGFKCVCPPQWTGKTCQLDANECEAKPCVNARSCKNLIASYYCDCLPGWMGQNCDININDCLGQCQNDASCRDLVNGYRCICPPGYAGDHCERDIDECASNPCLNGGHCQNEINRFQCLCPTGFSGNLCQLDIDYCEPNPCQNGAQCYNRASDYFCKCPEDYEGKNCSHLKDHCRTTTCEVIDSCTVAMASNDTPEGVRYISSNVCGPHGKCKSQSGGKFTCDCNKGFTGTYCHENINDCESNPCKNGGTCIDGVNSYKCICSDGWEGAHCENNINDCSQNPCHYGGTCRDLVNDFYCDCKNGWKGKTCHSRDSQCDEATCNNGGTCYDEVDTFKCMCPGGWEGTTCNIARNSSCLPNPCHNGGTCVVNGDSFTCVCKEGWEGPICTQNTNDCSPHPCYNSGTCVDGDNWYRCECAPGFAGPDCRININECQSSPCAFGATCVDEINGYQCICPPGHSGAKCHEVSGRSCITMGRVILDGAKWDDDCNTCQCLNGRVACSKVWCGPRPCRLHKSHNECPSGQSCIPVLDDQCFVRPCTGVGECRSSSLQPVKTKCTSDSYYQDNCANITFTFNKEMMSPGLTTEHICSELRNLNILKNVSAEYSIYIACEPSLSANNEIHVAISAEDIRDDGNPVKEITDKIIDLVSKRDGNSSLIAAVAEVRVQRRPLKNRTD

murine Jagged2-Fc = murine Jagged2-Fc (mouse, UniProt Q9QYE5); experiment: ELISA
human Jagged1-His = human Jagged1-His (human, UniProt P78504); experiment: ELISA
murine DLL4-His = target: T3, murine DLL4-His (mouse, UniProt Q9JI71); experiment: ELISA
T3 chain: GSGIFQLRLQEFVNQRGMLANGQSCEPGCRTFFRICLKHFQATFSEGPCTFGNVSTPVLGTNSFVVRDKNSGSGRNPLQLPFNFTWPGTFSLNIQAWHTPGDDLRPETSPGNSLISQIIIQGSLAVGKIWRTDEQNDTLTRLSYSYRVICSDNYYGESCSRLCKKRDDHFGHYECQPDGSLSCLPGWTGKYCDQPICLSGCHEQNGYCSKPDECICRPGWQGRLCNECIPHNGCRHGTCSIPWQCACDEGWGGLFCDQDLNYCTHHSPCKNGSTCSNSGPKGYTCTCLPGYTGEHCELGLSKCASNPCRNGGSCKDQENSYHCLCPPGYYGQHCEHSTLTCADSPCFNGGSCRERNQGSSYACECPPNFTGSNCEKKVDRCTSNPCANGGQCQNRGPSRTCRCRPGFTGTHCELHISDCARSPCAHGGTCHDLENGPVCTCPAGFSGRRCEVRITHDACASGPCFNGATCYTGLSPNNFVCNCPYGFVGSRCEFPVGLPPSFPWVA

human Jagged2-Fc = human Jagged2-Fc (human, UniProt Q9Y219); experiment: ELISA
human DLL4-His = human DLL4-His (human, UniProt Q9NR61); experiment: ELISA
murine DLL1-His = murine DLL1-His (mouse, UniProt Q61483); experiment: ELISA
human Jagged1-Fc = human Jagged1-Fc (human, UniProt P78504); experiment: ELISA
rat Jagged1-Fc = rat Jagged1-Fc (rat, UniProt Q63722); experiment: ELISA
[5] = target: T1, human Jagged1 on 293/293T cells; experiment: KinExA, on-cell

Chain of murine Jagged2-Fc (Q9QYE5 24-1082): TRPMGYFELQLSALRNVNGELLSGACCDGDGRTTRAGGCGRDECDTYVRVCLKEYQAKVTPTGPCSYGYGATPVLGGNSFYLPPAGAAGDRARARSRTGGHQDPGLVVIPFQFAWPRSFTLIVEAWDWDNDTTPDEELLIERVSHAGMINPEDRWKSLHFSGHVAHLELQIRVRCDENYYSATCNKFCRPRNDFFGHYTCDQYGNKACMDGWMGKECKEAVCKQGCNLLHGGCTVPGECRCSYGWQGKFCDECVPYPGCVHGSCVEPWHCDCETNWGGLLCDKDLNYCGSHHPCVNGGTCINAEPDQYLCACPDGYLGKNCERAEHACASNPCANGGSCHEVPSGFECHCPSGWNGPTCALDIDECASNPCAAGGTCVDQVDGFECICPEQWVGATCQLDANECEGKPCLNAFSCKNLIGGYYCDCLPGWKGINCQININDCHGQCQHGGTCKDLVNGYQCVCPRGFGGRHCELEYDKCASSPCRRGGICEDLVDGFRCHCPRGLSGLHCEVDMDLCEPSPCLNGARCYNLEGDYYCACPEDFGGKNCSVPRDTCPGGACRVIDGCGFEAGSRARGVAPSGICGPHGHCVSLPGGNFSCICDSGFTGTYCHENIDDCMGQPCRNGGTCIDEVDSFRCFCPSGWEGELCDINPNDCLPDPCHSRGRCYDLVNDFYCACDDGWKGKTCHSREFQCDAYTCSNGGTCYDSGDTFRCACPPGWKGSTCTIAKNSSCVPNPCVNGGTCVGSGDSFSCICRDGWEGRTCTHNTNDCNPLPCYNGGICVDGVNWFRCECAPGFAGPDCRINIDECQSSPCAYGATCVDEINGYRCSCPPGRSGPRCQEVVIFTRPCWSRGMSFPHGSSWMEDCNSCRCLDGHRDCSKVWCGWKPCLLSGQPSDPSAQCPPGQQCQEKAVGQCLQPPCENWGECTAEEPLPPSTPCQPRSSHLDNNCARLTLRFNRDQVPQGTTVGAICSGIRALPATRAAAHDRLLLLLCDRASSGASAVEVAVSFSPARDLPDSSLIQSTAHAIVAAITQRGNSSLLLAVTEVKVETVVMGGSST
Chain of murine DLL1-His (Q61483 18-545): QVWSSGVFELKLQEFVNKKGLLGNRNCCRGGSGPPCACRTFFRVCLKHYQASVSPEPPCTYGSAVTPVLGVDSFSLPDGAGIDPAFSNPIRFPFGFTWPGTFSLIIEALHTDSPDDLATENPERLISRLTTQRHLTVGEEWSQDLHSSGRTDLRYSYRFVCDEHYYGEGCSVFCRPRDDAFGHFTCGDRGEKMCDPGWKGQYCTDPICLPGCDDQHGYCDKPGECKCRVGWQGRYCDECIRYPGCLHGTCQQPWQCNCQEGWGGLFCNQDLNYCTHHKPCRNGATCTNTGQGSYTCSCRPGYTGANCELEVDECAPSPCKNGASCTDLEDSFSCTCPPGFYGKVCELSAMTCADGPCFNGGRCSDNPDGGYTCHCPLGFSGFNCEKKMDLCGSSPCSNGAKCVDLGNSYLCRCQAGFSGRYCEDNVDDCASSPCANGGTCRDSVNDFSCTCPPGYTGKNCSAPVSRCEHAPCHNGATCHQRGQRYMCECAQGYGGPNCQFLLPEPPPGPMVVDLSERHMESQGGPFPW
Chain of human DLL4-His (Q9NR61 27-529): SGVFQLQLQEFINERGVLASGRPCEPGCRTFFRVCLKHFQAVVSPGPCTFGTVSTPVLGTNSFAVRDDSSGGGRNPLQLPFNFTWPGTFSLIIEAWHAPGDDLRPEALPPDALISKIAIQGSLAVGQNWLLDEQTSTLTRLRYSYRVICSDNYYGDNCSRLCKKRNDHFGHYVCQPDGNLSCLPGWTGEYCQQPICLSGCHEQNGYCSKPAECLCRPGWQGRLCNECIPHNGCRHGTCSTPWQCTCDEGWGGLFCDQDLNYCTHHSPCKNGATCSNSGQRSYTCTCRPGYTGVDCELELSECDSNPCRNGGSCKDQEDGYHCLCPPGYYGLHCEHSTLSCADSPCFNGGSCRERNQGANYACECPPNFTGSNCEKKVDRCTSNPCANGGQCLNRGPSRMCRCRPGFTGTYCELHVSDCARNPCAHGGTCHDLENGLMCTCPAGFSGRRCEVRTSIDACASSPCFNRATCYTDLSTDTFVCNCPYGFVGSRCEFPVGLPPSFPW
Chain of human Jagged2-Fc (Q9Y219 24-1080): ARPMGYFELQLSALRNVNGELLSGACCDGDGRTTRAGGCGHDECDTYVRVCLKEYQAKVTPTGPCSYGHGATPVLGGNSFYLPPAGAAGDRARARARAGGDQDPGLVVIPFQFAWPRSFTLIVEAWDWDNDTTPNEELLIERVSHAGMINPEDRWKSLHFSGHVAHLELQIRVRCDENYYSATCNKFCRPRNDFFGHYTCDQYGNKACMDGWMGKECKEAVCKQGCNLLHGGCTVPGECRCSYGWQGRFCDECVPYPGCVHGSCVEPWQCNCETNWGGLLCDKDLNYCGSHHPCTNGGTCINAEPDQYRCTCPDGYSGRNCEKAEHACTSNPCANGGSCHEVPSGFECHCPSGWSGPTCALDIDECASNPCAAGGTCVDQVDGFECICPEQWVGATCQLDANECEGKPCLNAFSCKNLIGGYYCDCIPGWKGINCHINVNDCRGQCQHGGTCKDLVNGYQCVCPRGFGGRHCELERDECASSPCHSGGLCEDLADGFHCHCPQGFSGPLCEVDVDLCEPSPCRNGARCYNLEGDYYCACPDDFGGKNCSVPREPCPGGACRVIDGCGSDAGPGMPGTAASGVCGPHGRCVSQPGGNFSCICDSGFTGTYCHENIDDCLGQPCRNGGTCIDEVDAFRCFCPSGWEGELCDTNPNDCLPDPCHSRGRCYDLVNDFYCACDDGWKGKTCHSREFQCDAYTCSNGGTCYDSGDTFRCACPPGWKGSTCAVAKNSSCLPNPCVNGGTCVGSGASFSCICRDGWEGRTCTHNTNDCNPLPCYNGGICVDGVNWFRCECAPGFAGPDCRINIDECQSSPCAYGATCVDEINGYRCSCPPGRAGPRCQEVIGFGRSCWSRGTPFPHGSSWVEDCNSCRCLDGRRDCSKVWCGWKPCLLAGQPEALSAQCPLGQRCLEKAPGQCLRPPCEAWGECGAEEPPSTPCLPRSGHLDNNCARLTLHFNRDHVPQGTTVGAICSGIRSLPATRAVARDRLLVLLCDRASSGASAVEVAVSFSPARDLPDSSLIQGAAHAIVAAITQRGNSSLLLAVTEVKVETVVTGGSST
Chain of human Jagged1 ECD-His (Met1-Ser1046) (P78504 1-1046): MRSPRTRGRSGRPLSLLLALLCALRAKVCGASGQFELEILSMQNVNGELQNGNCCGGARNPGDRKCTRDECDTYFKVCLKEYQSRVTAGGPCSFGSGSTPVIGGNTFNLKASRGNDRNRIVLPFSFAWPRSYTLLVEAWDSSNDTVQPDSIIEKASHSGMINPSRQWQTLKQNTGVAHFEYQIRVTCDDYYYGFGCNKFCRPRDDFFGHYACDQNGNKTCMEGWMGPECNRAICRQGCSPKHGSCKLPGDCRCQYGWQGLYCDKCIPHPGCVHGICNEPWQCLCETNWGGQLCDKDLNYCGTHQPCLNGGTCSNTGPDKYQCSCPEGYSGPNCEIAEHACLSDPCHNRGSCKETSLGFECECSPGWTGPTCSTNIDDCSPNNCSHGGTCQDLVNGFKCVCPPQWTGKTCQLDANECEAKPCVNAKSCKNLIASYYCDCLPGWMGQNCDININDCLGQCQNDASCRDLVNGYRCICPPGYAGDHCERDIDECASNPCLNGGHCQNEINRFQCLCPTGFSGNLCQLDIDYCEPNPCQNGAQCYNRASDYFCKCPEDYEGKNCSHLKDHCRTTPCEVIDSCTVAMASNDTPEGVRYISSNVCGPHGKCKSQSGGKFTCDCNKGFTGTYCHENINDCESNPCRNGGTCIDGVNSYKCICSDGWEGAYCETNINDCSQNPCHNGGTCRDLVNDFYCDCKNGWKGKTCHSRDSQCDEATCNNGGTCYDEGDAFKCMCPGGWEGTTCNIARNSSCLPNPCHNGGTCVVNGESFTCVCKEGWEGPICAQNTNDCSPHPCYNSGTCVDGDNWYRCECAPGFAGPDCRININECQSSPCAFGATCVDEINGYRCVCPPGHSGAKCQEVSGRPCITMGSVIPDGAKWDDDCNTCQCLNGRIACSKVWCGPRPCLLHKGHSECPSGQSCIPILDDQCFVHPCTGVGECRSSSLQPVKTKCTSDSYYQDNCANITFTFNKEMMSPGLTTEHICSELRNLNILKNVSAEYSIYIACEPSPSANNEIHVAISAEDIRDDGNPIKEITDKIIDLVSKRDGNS

Kd [1]: 0.614 nM | EC50 [2]: 0.29 nM | EC50 [3]: 0.25 nM | EC50 [4]: 0.36 nM | binding result (murine Jagged2-Fc): no binding | EC50 (human Jagged1-His): 0.39 nM | binding result (murine DLL4-His): no binding | binding result (human Jagged2-Fc): no binding | binding result (human DLL4-His): no binding | binding result (murine DLL1-His): no binding | EC50 (human Jagged1-Fc): 0.8 nM | EC50 (rat Jagged1-Fc): 0.51 nM | Kd [5]: 0.125 nM
B1: 15D11.1 (antibody, V domains shown)
VH: QVTLKESGPVLVKPTETLTLTCTVSGFSLSNAEMGVSWIRQPPGKALEWLAHLFSNDEKSYSTSLKSRLTISKDTSKSQVVLTMTDLDPVDTATYYCARSFNWNYDFDYWGQGTLVTVSS
VL: QSALTQPASVSGSPGQSITISCTGTSSAVGGHNFVSWYQQYPGKAPKLMIYEVSNRPSGVSTRFSGSKSGNTASLTISGLQAEDEADYYCSSYTSSSTWVFGGGTRLTVL
